# Data taken from patent US20250361274A1, “PEPTIDE AND PEPTIDE-CONTAINING AGENT” (PEPTIDREAM INC., priority 2022, published 2025).
# Numbered stars: 1 amine (or outer) side, 2 acyl side, 3 side chain; on linkers, the order of the positions; unused ones are H or OH. Bridge positions count the residues as written; N and C are the ends. Square brackets hold non-standard residues; d marks the D form. MeKCOpipzaa = N6-(4-(carboxymethyl)piperazine-1-carbonyl)-N2-methyl-L-lysine, CN([C@@H](CCCCNC(=O)N1CCN(CC(=O)[*:3])CC1)C(=O)[*:2])[*:1]; KCOpipzaa = N6-(4-(carboxymethyl)piperazine-1-carbonyl)-L-lysine, O=C(NCCCC[C@H](N[*:1])C(=O)[*:2])N1CCN(CC(=O)[*:3])CC1; 3Pal(6-Ph) = N[C@@H](Cc1ccc(-c2ccccc2)nc1)C(=O)O; Phe(4-COOH) = N[C@@H](Cc1ccc(C(=O)O)cc1)C(=O)O; Bip = N[C@@H](Cc1ccc(-c2ccccc2)cc1)C(=O)O; Phe(4-F) = N[C@@H](Cc1ccc(F)cc1)C(=O)O; 4Pal = N[C@@H](Cc1ccncc1)C(=O)O; βAla = NCCC(=O)O
# Columns and labels:
# BMP7 = target: T1, BMP7 (Homo sapiens, UniProt P18075); experiment: BMP7 signal transduction inhibitory activity: SMAD1 phosphorylation by BMP7 stimulus, A549 cells; assay type: cell-based; conditions: inhibition of SMAD1 phosphorylation by BMP7 stimulus, A549 cells
# T1 sequence (P18075 293-431): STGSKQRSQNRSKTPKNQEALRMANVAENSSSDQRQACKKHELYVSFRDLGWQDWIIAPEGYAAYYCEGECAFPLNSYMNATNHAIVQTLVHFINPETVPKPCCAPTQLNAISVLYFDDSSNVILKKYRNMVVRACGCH
# Outline: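 Inhibition is read as reduced BMP7-driven SMAD1 phosphorylation in human A549 cells, with the BMP7 stimulus at 10 nM. Three-point peptide concentrations spanned 1–1,000 nM depending on the peptide series. Some peptides received eight-point, 1/3-ratio titrations from 100 nM or 1,000 nM, alongside a Noggin control.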
# BMP4 = target: T2, BMP4 (Homo sapiens, UniProt P12644); experiment: BMP4 signal transduction inhibitory activity: SMAD1 phosphorylation by BMP4 stimulus, AlphaLISA SureFire, A549 cells; assay type: cell-based; conditions: inhibition of SMAD1 phosphorylation by BMP4 stimulus, A549 cells
# T2 sequence (P12644 293-408): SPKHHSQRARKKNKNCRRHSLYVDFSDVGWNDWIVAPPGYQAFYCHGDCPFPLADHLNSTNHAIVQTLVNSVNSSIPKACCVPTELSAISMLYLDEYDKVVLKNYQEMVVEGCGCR
# [1] = AlphaLISA, class by peptide concentration zone
# [2] = peptides of Synthesis 2, classes A-D, ND
# [3] = peptides of Synthesis 2, classes A-C, ND
substance,measurement,setting,value
62 (Ac-A[KCOpipzaa]VYVD[KCOpipzaa][Bip]PYP[Bip][4Pal][Phe(4-COOH)][Phe(4-COOH)]SCG-NH2; thioether (positions not given here); not fully specified (bridges)) [compound 62],aLISA BMP7,BMP7; [1],ND (the inhibitory activity was less than 30% at the maximum concentration evaluated)
same,aLISA BMP4,BMP4; [1],D (showed inhibitory activity of less than 50% in 2 nM-addition zone)
63 (Ac-E[KCOpipzaa]VYVDR[Bip]PYP[Bip]Y[Phe(4-COOH)][Phe(4-COOH)]SCG-NH2; thioether (positions not given here); not fully specified (bridges)) [compound 63],aLISA BMP7,BMP7; [1],C (showed less than 50% of inhibitory activity in 10 nM-addition zone and showed 50% or more of inhibitory activity in 100 nM-addition zone)
same,aLISA BMP4,BMP4; [1],A (showed an inhibitory activity of 50% or more in a zone to which the peptide was added to in an amount of 0.2 nM)
64 (Ac-E[KCOpipzaa]VYVD[KCOpipzaa][Bip]PYP[Bip]Y[Phe(4-COOH)][Phe(4-COOH)]SCG-NH2; thioether (positions not given here); not fully specified (bridges)) [compound 64],aLISA BMP7,BMP7; [1],D (showed less than 50% of inhibitory activity in 100 nM-addition zone)
same,aLISA BMP4,BMP4; [1],C (showed an inhibitory activity of less than 50% in 0.2 nM-addition zone and showed an inhibitory activity of 50% or more in 2 nM-addition zone were defined as B or C)
65 (Ac-E[KCOpipzaa]VYVDR[Bip]PYP[Bip][Phe(4-F)][Phe(4-COOH)][Phe(4-COOH)]SCG-NH2; thioether (positions not given here); not fully specified (bridges)) [compound 65],aLISA BMP7,BMP7; [1],C (showed less than 50% of inhibitory activity in 10 nM-addition zone and showed 50% or more of inhibitory activity in 100 nM-addition zone)
same,aLISA BMP4,BMP4; [1],A (showed an inhibitory activity of 50% or more in a zone to which the peptide was added to in an amount of 0.2 nM)
68 ({CH2CO}-E[KCOpipzaa]VYVD[KCOpipzaa][Bip]PYP[Bip][4Pal][Phe(4-COOH)][Phe(4-COOH)]SCG-NH2; thioether N-17; not fully specified) [compound 68],aLISA BMP7,BMP7; [1],ND (the inhibitory activity was less than 30% at the maximum concentration evaluated)
same,aLISA BMP4,BMP4; [1],D (showed inhibitory activity of less than 50% in 2 nM-addition zone)
70 ({CH2CO}-ARVYVDK[Bip]PYP[Bip]Y[Phe(4-COOH)][Phe(4-COOH)]SCG-NH2; thioether N-17; not fully specified) [compound 70],aLISA BMP7,BMP7; [1],C (showed less than 50% of inhibitory activity in 10 nM-addition zone and showed 50% or more of inhibitory activity in 100 nM-addition zone)
same,aLISA BMP4,BMP4; [1],A (showed an inhibitory activity of 50% or more in a zone to which the peptide was added to in an amount of 0.2 nM)
71 ({CH2CO}-ERVYVDR[Bip]PYP[Bip][Phe(4-F)][Phe(4-COOH)][Phe(4-COOH)]SCG-NH2; thioether N-17; not fully specified) [compound 71],aLISA BMP7,BMP7; [1],C (showed less than 50% of inhibitory activity in 10 nM-addition zone and showed 50% or more of inhibitory activity in 100 nM-addition zone)
same,aLISA BMP4,BMP4; [1],A (showed an inhibitory activity of 50% or more in a zone to which the peptide was added to in an amount of 0.2 nM)
72 ({CH2CO}-ERVYVDR[Bip]PYP[Bip][Phe(4-F)][Phe(4-COOH)][4Pal]SCG-NH2; thioether N-17; not fully specified) [compound 72],aLISA BMP7,BMP7; [1],C (showed less than 50% of inhibitory activity in 10 nM-addition zone and showed 50% or more of inhibitory activity in 100 nM-addition zone)
same,aLISA BMP4,BMP4; [1],A (showed an inhibitory activity of 50% or more in a zone to which the peptide was added to in an amount of 0.2 nM)
76 ({CH2CO}-E[KCOpipzaa]VYV[KCOpipzaa][KCOpipzaa][Bip]PYP[Bip][Phe(4-F)][Phe(4-COOH)][4Pal]SCG-NH2; thioether N-17; not fully specified) [compound 76],aLISA BMP7,BMP7; [1],C (showed less than 50% of inhibitory activity in 10 nM-addition zone and showed 50% or more of inhibitory activity in 100 nM-addition zone)
same,aLISA BMP4,BMP4; [1],C (showed an inhibitory activity of less than 50% in 0.2 nM-addition zone and showed an inhibitory activity of 50% or more in 2 nM-addition zone were defined as B or C)
77 ({CH2CO}-ERVYVDR[Bip][KCOpipzaa]YP[Bip][Phe(4-F)][Phe(4-COOH)][Phe(4-COOH)]SCG-NH2; thioether N-17; not fully specified) [compound 77],aLISA BMP7,BMP7; [1],C (showed less than 50% of inhibitory activity in 10 nM-addition zone and showed 50% or more of inhibitory activity in 100 nM-addition zone)
same,aLISA BMP4,BMP4; [1],A (showed an inhibitory activity of 50% or more in a zone to which the peptide was added to in an amount of 0.2 nM)
78 ({CH2CO}-ERVYVDR[Bip][KCOpipzaa]YP[Bip][Phe(4-F)][Phe(4-COOH)][4Pal]SCG-NH2; thioether N-17; not fully specified) [compound 78],aLISA BMP7,BMP7; [1],C (showed less than 50% of inhibitory activity in 10 nM-addition zone and showed 50% or more of inhibitory activity in 100 nM-addition zone)
same,aLISA BMP4,BMP4; [1],A (showed an inhibitory activity of 50% or more in a zone to which the peptide was added to in an amount of 0.2 nM)
79 ({CH2CO}-E[KCOpipzaa]VYVDR[Bip][KCOpipzaa]YP[Bip][Phe(4-F)][Phe(4-COOH)][Phe(4-COOH)]SCG-NH2; thioether N-17; not fully specified) [compound 79],aLISA BMP7,BMP7; [2],D (showed less than 50% of inhibitory activity in 100 nM-addition zone)
same,aLISA BMP4,BMP4; [3],C (showed an inhibitory activity of less than 50% in 0.2 nM-addition zone and showed an inhibitory activity of 50% or more in 2 nM-addition zone were defined as B or C)
80 ({CH2CO}-E[KCOpipzaa]VYVDR[Bip][KCOpipzaa]YP[Bip][Phe(4-F)][Phe(4-COOH)][4Pal]SCG-NH2; thioether N-17; not fully specified) [compound 80],aLISA BMP7,BMP7; [2],C (showed less than 50% of inhibitory activity in 10 nM-addition zone and showed 50% or more of inhibitory activity in 100 nM-addition zone)
same,aLISA BMP4,BMP4; [3],A (showed an inhibitory activity of 50% or more in a zone to which the peptide was added to in an amount of 0.2 nM)
81 ({CH2CO}-E[KCOpipzaa]VYVDR[Bip][MeKCOpipzaa]YP[Bip][Phe(4-F)][Phe(4-COOH)][4Pal]SCG-NH2; thioether N-17; not fully specified) [compound 81],aLISA BMP7,BMP7; [2],C (showed less than 50% of inhibitory activity in 10 nM-addition zone and showed 50% or more of inhibitory activity in 100 nM-addition zone)
same,aLISA BMP4,BMP4; [3],A (showed an inhibitory activity of 50% or more in a zone to which the peptide was added to in an amount of 0.2 nM)
85 ({CH2CO}-ERVYVDR[Bip]SYV[Bip]Y[Phe(4-COOH)][Phe(4-COOH)]SC[βAla][dE]-OH; thioether N-17; not fully specified) [compound 85],aLISA BMP7,BMP7; [2],C (showed less than 50% of inhibitory activity in 10 nM-addition zone and showed 50% or more of inhibitory activity in 100 nM-addition zone)
same,aLISA BMP4,BMP4; [3],A (showed an inhibitory activity of 50% or more in a zone to which the peptide was added to in an amount of 0.2 nM)
92 ({CH2CO}-EKVYVDK[Bip]YYV[Bip][Phe(4-F)][Phe(4-COOH)][4Pal]SCG-NH2; thioether N-17; not fully specified) [compound 92],aLISA BMP7,BMP7; [2],C (showed less than 50% of inhibitory activity in 10 nM-addition zone and showed 50% or more of inhibitory activity in 100 nM-addition zone)
same,aLISA BMP4,BMP4; [3],C (showed an inhibitory activity of less than 50% in 0.2 nM-addition zone and showed an inhibitory activity of 50% or more in 2 nM-addition zone were defined as B or C)
94 ({CH2CO}-A[KCOpipzaa]VYV[KCOpipzaa]R[Bip]PYV[Bip]Y[Phe(4-COOH)][Phe(4-COOH)]SC[βAla][dE]-OH; thioether N-17; not fully specified) [compound 94],aLISA BMP7,BMP7; [2],C (showed less than 50% of inhibitory activity in 10 nM-addition zone and showed 50% or more of inhibitory activity in 100 nM-addition zone)
same,aLISA BMP4,BMP4; [3],A (showed an inhibitory activity of 50% or more in a zone to which the peptide was added to in an amount of 0.2 nM)
95 ({CH2CO}-ERVYVDR[Bip]SYP[Bip]Y[Phe(4-COOH)][Phe(4-COOH)]SC[βAla][dE]-OH; thioether N-17; not fully specified) [compound 95],aLISA BMP7,BMP7; [2],C (showed less than 50% of inhibitory activity in 10 nM-addition zone and showed 50% or more of inhibitory activity in 100 nM-addition zone)
same,aLISA BMP4,BMP4; [3],A (showed an inhibitory activity of 50% or more in a zone to which the peptide was added to in an amount of 0.2 nM)
96 ({CH2CO}-ERVYVDR[3Pal(6-Ph)]SYP[Bip]Y[Phe(4-COOH)][Phe(4-COOH)]SC[βAla][dE]-OH; thioether N-17; not fully specified) [compound 96],aLISA BMP7,BMP7; [2],C (showed less than 50% of inhibitory activity in 10 nM-addition zone and showed 50% or more of inhibitory activity in 100 nM-addition zone)
same,aLISA BMP4,BMP4; [3],A (showed an inhibitory activity of 50% or more in a zone to which the peptide was added to in an amount of 0.2 nM)
